Reference: PMC10604876, “Development of Anti-OSCAR Antibodies for the Treatment of Osteoarthritis” (Biomedicines, 2023)
Blank lines part the entries; values can stand above or below the binder they belong to.

Assays:
[1] = target: T1, mouse OSCAR extracellular domains fused to human IgG1 Fc (Mus musculus (Mouse)., UniProt Q8VBT3); test: ELISA; serial dilution ELISA of IgG-format antibodies against hOSCAR-Fc and mOSCAR-Fc; EC50; conditions: both partners purified
T1 construct: osteoclast-associated receptor (OSCAR), mouse, extracellular domains 'corresponding' to amino acids 19-233 of human OSCAR; also called mOSCAR-Fc; mOSCAR; source: FreeStyle 293F, transfected (pVITRO1), secreted, purified (Protein G-Sepharose)

[2] = target: T1, mouse OSCAR extracellular domains fused …; test: BLI; Octet; IgG (5 ug/mL) captured on FAB2G sensor; 4.69-75 nM hOSCAR-Fc or mOSCAR-Fc (two-fold serial dilution) in PBST; 1:1 Langmuir model; conditions: both partners purified
[3] = target: T2, human OSCAR extracellular domains fused to human IgG1 Fc (human) (UniProt Q8IYS5); test: ELISA; serial dilution ELISA of IgG-format antibodies against hOSCAR-Fc and mOSCAR-Fc; EC50
T2 sequence: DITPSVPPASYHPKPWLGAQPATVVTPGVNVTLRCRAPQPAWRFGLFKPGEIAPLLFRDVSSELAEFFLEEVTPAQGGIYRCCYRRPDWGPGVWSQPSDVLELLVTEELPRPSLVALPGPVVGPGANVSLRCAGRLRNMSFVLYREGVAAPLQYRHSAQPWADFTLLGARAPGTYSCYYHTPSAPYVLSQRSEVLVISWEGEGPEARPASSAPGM

[4] = target: T3, human OSCAR extracellular domains fused to human IgG1 Fc (Homo sapiens, UniProt Q8IYS5-2); test: as above; conditions: both partners purified
T3 construct: osteoclast-associated receptor (OSCAR), human, extracellular domains, amino acids 19-233; also called hOSCAR-Fc; hOSCAR; source: FreeStyle 293F, transfected (pVITRO1), secreted, purified (Protein G-Sepharose)

[5] = target: T3, human OSCAR extracellular domains fused …; test: as above; conditions: both partners purified; remark: listed apart in the source
[6] = target: T3, human OSCAR extracellular domains fused …; test: BLI; Octet; IgG (5 ug/mL) captured on FAB2G sensor; 4.69-75 nM hOSCAR-Fc or mOSCAR-Fc (two-fold serial dilution) in PBST; 1:1 Langmuir model; conditions: both partners purified
[7] = target: anti-OSCAR antibody D11, human IgG1; test: as above

T1 sequence (Q8VBT3 19-231): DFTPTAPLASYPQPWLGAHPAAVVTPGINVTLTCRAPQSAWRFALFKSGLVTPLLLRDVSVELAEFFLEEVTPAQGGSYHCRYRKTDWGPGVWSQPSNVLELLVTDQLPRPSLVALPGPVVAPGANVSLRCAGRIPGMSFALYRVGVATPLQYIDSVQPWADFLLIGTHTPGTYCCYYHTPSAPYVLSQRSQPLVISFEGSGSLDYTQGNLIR

EC50 [1]: 151 nM
Kd [2]: 2.87 nM
koff [2]: 0.000254 s⁻¹
kon [2]: 91300 M⁻¹ s⁻¹
EC50 [3]: > 1000 nM
B1: anti-OSCAR antibody D11, human IgG1 (antibody, V domains shown)
VH: EVQLLESGGGLVQPGGSLRLSCAASGFTFSDYYWTWVRQAPGKGLEWVSGSPVFGAANYAQNFQGRFTISRDNSKNTLYLQMNSLRAEDTAVYYCAKAGFTGGHFDIWGQGTLVTVSS
VL: QSVLTQPPSASGTPGQRVTISCSGSSSNIGNNYVSWYQQLPGTAPKLLIYGNSNRPSGVPNRFSGSKSGTSASLAISGLRSEDEADYYCQSYDSSSWLFGGGTKLTVL
notes: VH before CDR-H3 (clone from a synthetic human scFv library); rest of VH after CDR-H3 and the human IgG1 constant region; light chain of D11; IgG1; Only the CDR-H3 is printed; also called D11 (parent); D11 IgG; source: ExpiCHO, transfected (pcIW3.3), secreted, purified (Protein G)

EC50 [4]: 0.93 nM
EC50 [5]: 36.8 nM
EC50 [1]: 0.93 nM
Kd [6]: 0.41 nM
koff [6]: 4.15e-05 s⁻¹
kon [6]: 101000 M⁻¹ s⁻¹
Kd [2]: 0.22 nM
koff [2]: 2.59e-05 s⁻¹
kon [2]: 913000 M⁻¹ s⁻¹
B2: anti-OSCAR antibody D11-B9, human IgG1 (affinity-matured variant of D11) (antibody, V domains shown)
VH: EVQLLESGGGLVQPGGSLRLSCAASGFTFSDYYWTWVRQAPGKGLEWVSGSPVFGAANYAQNFQGRFTISRDNSKNTLYLQMNSLRAEDTAVYYCAKAGIPGHFDIWGQGTLVTVSS
VL: B1 VL
notes: VH before CDR-H3, as the heavy chain of m3; rest of VH after CDR-H3 and the human IgG1 constant region, as the heavy chain of m3; as the light chain of m3 (only CDR-H3 was randomized); IgG1; Only the CDR-H3 is printed; From NNK randomization of residues H98-99 (Kabat); CDR-H3 is one residue shorter than the parent's; also called D11-4-B9; source: ExpiCHO, transfected (pcIW3.3), secreted, purified …

Kd [7]: 5.61 nM
koff [7]: 0.000512 s⁻¹
kon [7]: 91300 M⁻¹ s⁻¹
B3: human OSCAR extracellular domains fused to human IgG1 Fc (Fc fusion)
chain: T2 sequence
